Laboratory results: US20040014638A1 (RIGEL PHARMACEUTICALS, published 2004)
Ends that are not written are not given here.

T1: human CLLD8 protein (human, UniProt Q96T68 1-719, limits assumed)
T1 sequence: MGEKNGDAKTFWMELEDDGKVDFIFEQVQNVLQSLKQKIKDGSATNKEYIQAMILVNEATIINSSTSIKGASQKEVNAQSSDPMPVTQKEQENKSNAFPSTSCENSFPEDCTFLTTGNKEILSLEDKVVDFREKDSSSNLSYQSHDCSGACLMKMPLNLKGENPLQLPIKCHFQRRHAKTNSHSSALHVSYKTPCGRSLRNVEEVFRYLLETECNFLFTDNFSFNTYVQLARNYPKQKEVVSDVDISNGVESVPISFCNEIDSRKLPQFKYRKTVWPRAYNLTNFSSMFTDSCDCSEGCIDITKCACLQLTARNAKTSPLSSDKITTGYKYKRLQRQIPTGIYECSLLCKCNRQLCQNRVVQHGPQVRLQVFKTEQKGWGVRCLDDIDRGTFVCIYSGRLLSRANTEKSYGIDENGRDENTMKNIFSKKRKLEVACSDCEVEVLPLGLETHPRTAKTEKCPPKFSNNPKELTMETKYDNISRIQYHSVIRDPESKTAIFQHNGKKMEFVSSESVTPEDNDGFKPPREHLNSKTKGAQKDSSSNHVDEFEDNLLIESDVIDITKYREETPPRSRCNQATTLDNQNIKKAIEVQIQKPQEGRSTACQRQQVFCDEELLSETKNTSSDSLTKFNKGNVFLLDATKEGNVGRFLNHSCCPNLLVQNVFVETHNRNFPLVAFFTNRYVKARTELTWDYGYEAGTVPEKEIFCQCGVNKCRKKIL


Columns and labels:
human CLLD8 protein [1] = biological target: T1, human CLLD8 protein; assay: cell-based or functional assay
human CLLD8 protein [2] = biological target: T1, human CLLD8 protein; assay: cell-based or functional assay; remark: listed apart in the source

endogenous ε inhibition ratio (TAQMAN quantitative PCR of ε transcription product, +IL-4/+Dox to +IL-4/-Dox) (human CLLD8 protein [1])	reporter ratio (original clone screen, +IL-4/+Dox over +IL-4/-Dox GFP fluorescence) (human CLLD8 protein [1])	reporter ratio (GFP under germline ε promoter, A5T4 reporter line) (human CLLD8 protein [2])	Binder
2.82	1.55	1.62	AMHGHHGWPWGMEQGCTPLG (also: expressed as BFP-peptide fusion via alpha-helical linker, bait in pGBKT7) [peptide CL02A3 wt]
–	–	1.16	AMHGHHAAPWGMEQGCTPLG [peptide CL02A3GW]
–	–	1.99	AMHGHHGWPWGMEQGCTPAA [peptide CL02A3LG]
–	–	1.03	RAHGHHGWPWGMEQGCTPLG [peptide CL02A3AM]
